This is an account of results in patent US20120039906A1.

This test has as its target PD-1 Ig fusion protein (extracellular region of human PD-1, aa 1 to 152, fused to the Fc fragment of human IgG1) (human) (UniProt Q15116). Kind of test: SPR (Biacore), 1:1 Langmuir model, PD-L2 Ig over immobilised PD-1 Ig; bivalent analyte, filing calls it most likely an avidity value. For orientation: Surface plasmon resonance follows binding to a sensor surface in real time, without labels.

PD-1 Ig fusion protein (extracellular region of human PD-1, aa 1 to 152, fused to the Fc fragment of human IgG1) (human), sequence (Q15116 other isoform, or with tags, fused parts or gaps limits assumed, form in doubt): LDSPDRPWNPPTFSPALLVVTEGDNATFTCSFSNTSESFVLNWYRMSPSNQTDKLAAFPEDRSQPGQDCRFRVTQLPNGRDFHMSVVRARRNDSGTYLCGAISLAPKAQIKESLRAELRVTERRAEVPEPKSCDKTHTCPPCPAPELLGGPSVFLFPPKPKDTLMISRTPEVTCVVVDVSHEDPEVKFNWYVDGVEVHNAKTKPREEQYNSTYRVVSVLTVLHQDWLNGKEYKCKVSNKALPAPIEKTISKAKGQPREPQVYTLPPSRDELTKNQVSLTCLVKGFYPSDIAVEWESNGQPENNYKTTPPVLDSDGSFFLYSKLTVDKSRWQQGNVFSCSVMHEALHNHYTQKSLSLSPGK

“PD-L2 Ig fusion protein (extracellular portion of human PD-L2 fused to the Fc fragment of human IgG1) (from UniProt Q9BQ51 20-220) (Fc fusion)” came in with a Kd of 9.97 nM.
